Data published in doi:10.1101/2022.01.02.474068.

Biological target: BTN2A1 B30.2 domain (human)
Assay: SEC-MALS

Work on “BTN2A1 B30.2 domain (domain or fragment)” yielded a stoichiometry N of 2.
